The target in the test is T1, soluble form of bovine POMGNT2 (sPOMGNT2, residues 45–580) (bovine, UniProt Q5NDF2 45-580).
T1 sequence (looked up): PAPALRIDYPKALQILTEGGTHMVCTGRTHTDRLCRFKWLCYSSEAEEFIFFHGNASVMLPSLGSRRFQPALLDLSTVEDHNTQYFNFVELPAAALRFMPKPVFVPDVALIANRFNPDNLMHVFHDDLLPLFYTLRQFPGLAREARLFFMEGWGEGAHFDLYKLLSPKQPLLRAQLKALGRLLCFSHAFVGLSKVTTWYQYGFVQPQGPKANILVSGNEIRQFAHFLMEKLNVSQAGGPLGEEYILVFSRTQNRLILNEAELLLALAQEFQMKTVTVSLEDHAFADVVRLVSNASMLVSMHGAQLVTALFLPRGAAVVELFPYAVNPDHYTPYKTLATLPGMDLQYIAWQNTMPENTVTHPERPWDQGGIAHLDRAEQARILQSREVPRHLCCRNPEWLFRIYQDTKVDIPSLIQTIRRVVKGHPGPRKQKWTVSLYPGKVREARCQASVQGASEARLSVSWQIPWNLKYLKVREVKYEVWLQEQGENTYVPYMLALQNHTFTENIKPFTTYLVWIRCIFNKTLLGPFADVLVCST
The test is described as follows: crystal structure.

* marks the point of attachment. αMan = OC[C@H]1O[C@H](*)[C@@H](O)[C@@H](O)[C@@H]1O

B1: 379Man short peptide (peptide)
peptide: Ac-QT(αMan)PTLGPIQPTR-NH2
SMILES: CC[C@H](C)[C@H](NC(=O)[C@@H]1CCCN1C(=O)CNC(=O)[C@H](CC(C)C)NC(=O)[C@@H](NC(=O)[C@@H]1CCCN1C(=O)[C@@H](NC(=O)[C@H](CCC(N)=O)NC(C)=O)[C@@H](C)O[C@H]1O[C@H](CO)[C@@H](O)[C@H](O)[C@@H]1O)[C@@H](C)O)C(=O)N[C@@H](CCC(N)=O)C(=O)N1CCC[C@H]1C(=O)N[C@H](C(=O)N[C@@H](CCCNC(=N)N)C(N)=O)[C@@H](C)O
In the case of B1, the binding result is “binds”.

B2: 379Man long peptide (peptide)
peptide: Ac-TIRTRGAIIQT(αMan)PTLGPIQPTR-NH2
SMILES: CC[C@H](C)[C@H](NC(=O)[C@H](C)NC(=O)CNC(=O)[C@H](CCCNC(=N)N)NC(=O)[C@@H](NC(=O)[C@H](CCCNC(=N)N)NC(=O)[C@@H](NC(=O)[C@@H](NC(C)=O)[C@@H](C)O)[C@@H](C)CC)[C@@H](C)O)C(=O)N[C@H](C(=O)N[C@@H](CCC(N)=O)C(=O)N[C@H](C(=O)N1CCC[C@H]1C(=O)N[C@H](C(=O)N[C@@H](CC(C)C)C(=O)NCC(=O)N1CCC[C@H]1C(=O)N[C@H](C(=O)N[C@@H](CCC(N)=O)C(=O)N1CCC[C@H]1C(=O)N[C@H](C(=O)N[C@@H](CCCNC(=N)N)C(N)=O)[C@@H](C)O)[C@@H](C)CC)[C@@H](C)O)[C@@H](C)O[C@H]1O[C@H](CO)[C@@H](O)[C@H](O)[C@@H]1O)[C@@H](C)CC
Consider B2, for which the binding result is “binds”.

These data come from PMC8360118 (Genes to Cells, 2021).
